The labels stand for the following.
B1: MMP1 (parent)
chain: YTPDLPRADVDHAIEKAFQLWSNV
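Also: lentivirally expressed fusions sorted by FACS into six bins by GFP to DsRed ratio, PSI derived from sequencing read proportions per bin multiplied by bin number.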

The variants in the data set derive from B1. The data set can be described thus: protein stability index of a GFP-peptide fusion (GPS, HEK-293T) (PSI 1-6); higher = more stable. The note with it: c terminus: a fixed tail appended.
YTPDLPRADVDHAIYKAFQLWSNV [E15Y]: the protein stability index was 2.07.
As for YTPDLPRADVDHAIGKAFQLWSNV [E15G], the figure is 2.54; as for YTPDLPRADVDHAIWKAFQLWSNV [E15W], 1.83.
As for YTPDLPRADVDHAIRKAFQLWSNV [E15R], the figure is 2.73.
As for YTPDLPRADVDHAIHKAFQLWSNV [E15H], the figure is 2.09; as for YTPDLPRADVDHAICKAFQLWSNV [E15C], 2.24; as for YTPDLPRADVDHAISKAFQLWSNV [E15S], 2.19.
As for YTPDLPRADVDHAIIKAFQLWSNV [E15I], the protein stability index worked out at 2.53.
As for YTPDLPRADVDHAIKKAFQLWSNV [E15K], the figure is 1.32; as for YTPDLPRADVDHAITKAFQLWSNV [E15T], 2.46.
As for YTPDLPRADVDHAIPKAFQLWSNV [E15P], the figure is 1.93.
As for YTPDLPRADVDHAILKAFQLWSNV [E15L], the figure is 2.65.
In the case of YTPDLPRADVDHAIAKAFQLWSNV [E15A], the protein stability index turned out to be 1.46.
YTPDLPRADVDHAIDKAFQLWSNV [E15D]: the protein stability index was determined as 1.58.
As for YTPDLPRADVDHAIMKAFQLWSNV [E15M], the figure is 2.46; as for YTPDLPRADVDHAIQKAFQLWSNV [E15Q], 1.46; as for YTPDLPRADVDHAIFKAFQLWSNV [E15F], 2.56.
For the variant YTPDLPRADVDHAIVKAFQLWSNV [E15V], the protein stability index came to 1.39.
As for YTPDLPRADVDHAINKAFQLWSNV [E15N], the figure is 1.97; as for YTPDLPRADVDHANEKAFQLWSNV [I14N], 1.88.
As for YTPDLPRADVDHAFEKAFQLWSNV [I14F], the figure is 2.14; as for YTPDLPRADVDHAREKAFQLWSNV [I14R], 2.31.
As for YTPDLPRADVDHALEKAFQLWSNV [I14L], the figure is 1.39.
Regarding YTPDLPRADVDHATEKAFQLWSNV [I14T], the protein stability index was found to be 1.39.
As for YTPDLPRADVDHADEKAFQLWSNV [I14D], the figure is 1.81.
As for YTPDLPRADVDHAVEKAFQLWSNV [I14V], the figure is 2.08; as for YTPDLPRADVDHAHEKAFQLWSNV [I14H], 1.62; as for YTPDLPRADVDHASEKAFQLWSNV [I14S], 1.51.
With YTPDLPRADVDHAQEKAFQLWSNV [I14Q], the protein stability index is 2.3.
As for YTPDLPRADVDHAKEKAFQLWSNV [I14K], the figure is 2.14.
As for YTPDLPRADVDHAGEKAFQLWSNV [I14G], the figure is 2.25; as for YTPDLPRADVDHAWEKAFQLWSNV [I14W], 1.46; as for YTPDLPRADVDHAYEKAFQLWSNV [I14Y], 2.17.
As for YTPDLPRADVDHAMEKAFQLWSNV [I14M], the figure is 1.7; as for YTPDLPRADVDHAEEKAFQLWSNV [I14E], 1.36; as for YTPDLPRADVDHAPEKAFQLWSNV [I14P], 2.14.
As for YTPDLPRADVDHAIEKTFQLWSNV [A17T], the protein stability index stood at 2.54.
As for YTPDLPRADVDHAIEKMFQLWSNV [A17M], the figure is 2; as for YTPDLPRADVDHAIEKRFQLWSNV [A17R], 1.63.
As for YTPDLPRADVDHAIEKHFQLWSNV [A17H], the figure is 2.68.
As for YTPDLPRADVDHAIEKFFQLWSNV [A17F], the protein stability index is 1.97.
Regarding YTPDLPRADVDHAIEKYFQLWSNV [A17Y], the protein stability index was determined as 1.68.
As for YTPDLPRADVDHAIEKCFQLWSNV [A17C], the figure is 1.83.
With YTPDLPRADVDHAIEKDFQLWSNV [A17D], the protein stability index came to 1.97.
In the case of YTPDLPRADVDHAIEKLFQLWSNV [A17L], the protein stability index came out at 1.79.
Consider YTPDLPRADVDHAIEKEFQLWSNV [A17E], for which the protein stability index came out at 1.84.
Take YTPDLPRADVDHAIEKPFQLWSNV [A17P]: the protein stability index came to 1.43.
In the case of YTPDLPRADVDHAIEKSFQLWSNV [A17S], the protein stability index was 2.11.
As for YTPDLPRADVDHAIEKWFQLWSNV [A17W], the figure is 1.25.
As for YTPDLPRADVDHAIEKGFQLWSNV [A17G], the figure is 1.93; as for YTPDLPRADVDHAIEKNFQLWSNV [A17N], 1.53; as for YTPDLPRADVDHAIEKQFQLWSNV [A17Q], 1.82.
As for YTPDLPRADVDHAIEKKFQLWSNV [A17K], the figure is 1.44.
For YTPDLPRADVDHAIEKIFQLWSNV [A17I], the protein stability index turned out to be 2.15.
Regarding YTPDLPRADVDHAIEKVFQLWSNV [A17V], the protein stability index was 2.38.
As for YTPDLPRADVDHAIEMAFQLWSNV [K16M], the figure is 1.54.
Regarding YTPDLPRADVDHAIESAFQLWSNV [K16S], the protein stability index was 2.
As to YTPDLPRADVDHAIEAAFQLWSNV [K16A], the protein stability index was found to be 2.07.
As for YTPDLPRADVDHAIECAFQLWSNV [K16C], the figure is 2.02; as for YTPDLPRADVDHAIEDAFQLWSNV [K16D], 1.71.
As for YTPDLPRADVDHAIEPAFQLWSNV [K16P], the figure is 1.83.
As for YTPDLPRADVDHAIEGAFQLWSNV [K16G], the figure is 1.19; as for YTPDLPRADVDHAIEYAFQLWSNV [K16Y], 3.76.
Take YTPDLPRADVDHAIEQAFQLWSNV [K16Q]: the protein stability index was determined as 1.76.
As for YTPDLPRADVDHAIENAFQLWSNV [K16N], the figure is 1.52; as for YTPDLPRADVDHAIEIAFQLWSNV [K16I], 2.71; as for YTPDLPRADVDHAIEWAFQLWSNV [K16W], 3.17.
As to YTPDLPRADVDHAIEHAFQLWSNV [K16H], the protein stability index stood at 2.06.
As for YTPDLPRADVDHAIEEAFQLWSNV [K16E], the figure is 1.76.
As for YTPDLPRADVDHAIEVAFQLWSNV [K16V], the figure is 2.28; as for YTPDLPRADVDHAIELAFQLWSNV [K16L], 1.52.
As for YTPDLPRADVDHAIETAFQLWSNV [K16T], the figure is 2.03.
YTPDLPRADVDHAIEFAFQLWSNV [K16F]: the protein stability index came out at 1.52.
With YTPDLPRADVDHAIERAFQLWSNV [K16R], the protein stability index turned out to be 1.8.
As for YTPDLPRADVDHAIEKALQLWSNV [F18L], the figure is 1.46; as for YTPDLPRADVDHAIEKASQLWSNV [F18S], 1.67.
Turning to YTPDLPRADVDHAIEKAGQLWSNV [F18G], the protein stability index came to 2.23.
As for YTPDLPRADVDHAIEKATQLWSNV [F18T], the figure is 2.13.
As for YTPDLPRADVDHAIEKAIQLWSNV [F18I], the figure is 2.41; as for YTPDLPRADVDHAIEKARQLWSNV [F18R], 1.66.
As for YTPDLPRADVDHAIEKAWQLWSNV [F18W], the figure is 1.48.
As to YTPDLPRADVDHAIEKAPQLWSNV [F18P], the protein stability index amounted to 1.99.
As for YTPDLPRADVDHAIEKAKQLWSNV [F18K], the figure is 2.22; as for YTPDLPRADVDHAIEKAHQLWSNV [F18H], 3.17; as for YTPDLPRADVDHAIEKAQQLWSNV [F18Q], 1.73.
As for YTPDLPRADVDHAIEKADQLWSNV [F18D], the figure is 2.18; as for YTPDLPRADVDHAIEKAYQLWSNV [F18Y], 2.11; as for YTPDLPRADVDHAIEKAVQLWSNV [F18V], 2.04.
As for YTPDLPRADVDHAIEKANQLWSNV [F18N], the figure is 1.94.
Consider YTPDLPRADVDHAIEKAAQLWSNV [F18A], for which the protein stability index is 1.83.
As for YTPDLPRADVDHAIEKAEQLWSNV [F18E], the figure is 2.29; as for YTPDLPRADVDHAIEKACQLWSNV [F18C], 1.69.
As for YTPDLPRADVDHAIEKAMQLWSNV [F18M], the figure is 2.04; as for YTPDLPRADVDHAIEKAFALWSNV [Q19A], 1.54.

(Values after the supplement of paper PMC10567573.)
